From PMC7076015 (2020)

Molecular target: MBP-KPNA7(P339A) (human, UniProt A9QM74 1-516, P339A)

- Kd: ~157 nM
Binder: RGGNVGGKRKADGYNQPDSKRRQTN (domain or fragment) [GST-GFP-hnRNP R bipartite NLS]
